The values below come from a protein production outcome set (Wang et al. 2014).

The nature of this data set: label from the status in PepcDB records.

In the case of “MKTARPGKLKRQEEQASFISWRFALLCGCILLALVGLIMRTAYLQVINPDKLVREGDMRSLRVQEVPTARGMISDRSGRPLAVSVPVNAVWADPKELIEQGGISLDTRWKALSDALEIPLDQLATRINANPKGRFVYLARQVNPAIGDYIRKLKLPGIHLRQESRRYYPAGQVMAHIIGVTNIDGQGIEGVEKSFDRWLTGQPGERTVRKDHYGRVIEDISSVDSQAAHNLVLSVDERLQALVYRELNNAVAFNKAESGTAVLVDVNTGEVLAMANSPSYNPNNLTGTPKDAMRNRAITDIFEPGSTVKPMVVMTALQHGVVKENSVLNTLPYFVNGHQIKDVARYAELSVTGILQKSSNVGVSKLALAMPSSALVDTYSRFGFGKATNLGLVGESSGLYPKKQRWSDIERATFSFGYGLMVTPLQLARVYATIGSMGVYRPLSITRVDPPVAGERIFPEPLVRTVVHMMESVALPGGGGTKAAIKGYRIAIKTGTAKKVGPDGKYMDRYLAYTAGVAPASNPRFALVVVINDPQAGKYYGGAVSAPVFGAIMGGVLRTMNIEPDALPTGDKSELVINTKEGSGGRS”, the protein production result was “not failed”.
Next, “MKTEMLHTQEDILKMLDSLLRPAEPFWNEFYENREKDVPFFENVPDENLVSYIQKERVLKGKVLELGCGPGRNAIYLANEGFDVTAVDLSVEGINWAKERALAKGVEIHFICDSIFNLEVQNEFDFVYDSGCLHHIPPHRRINYVDLIKNSLKSGGYFGLTCFAAGDLDERNGSEITDWDVYREWSLQGGLAYSEEKLREIFKELEVIEIRRMKQMKQPNEMFGESFLWTALFKKK”: “failed”; “MKTEMTNVDISVAVSELQKVINGKLDKAFLVNNQDGKELILKVHIPEIGSREIAIGLGKYKYMTLTEYEREKPRNPPSFVMLLRKHLKNIKITSVAQHNFDRIVIFNFEWNELKYKLIIELFGDGNAILLDSEDKIILPLKIERWSTRKIVPKEIYKFPPQKDLDPKNLDYSLAKKLFIEEFEKEENKDTEVVRIISRTFGLAGVYSEEICLNSEIDKNLKNPKNEEIEKLFEGSKSFFKKVFGELKPKSTLKNGEFVNIDPIDLKIHENLKENEIKHYESFLTALDEYFSRFIMKKEIKQAESKLQKLVKKQERILKSQLDTKDKYEKQSVSNHKRGDLIYANYSLVDEIVSTIKDAREKMDWNGIKNVIKENKTHPILSKIINVNEKNAELTLKLSADYGNGLIEDSVPVDLRKNAFENADIVYQKSKKFKNKVQGVIEALKISEKKLAELKEKEKLDSEVFKEKEEKIKKKERK”: “failed”.
To “MKTIRLWDLPTRLFHWLLVIAVVGAVATVKLGAGWMAWHERFGLAVVGLLAFRVVWGLVGSTYARFSQFISGPGAMIRYLRGQWQGAGHNPLGAWSVLLLLGLFGFQAVTGLFANDEIAFNGPLYRLVSSGWSDTLSSWHRLMEWGLYAVVALHVLAVLFYTHVRKDNLIKPMVTGRKQVQSSELKDASGGGWLAMIIALAIAVAVVWAASGGLIPPPPPPPQNLGW” belongs “failed”; to “MKTITTFENKKVLVLGLARSGEAAARLLAKLGAIVTVNDGKPFDENPTAQSLLEEGIKVVCGSHPLELLDEDFCYMIKNPGIPYNNPMVKKALEKQIPVLTEVELAYLVSESQLIGITGSNGKTTTTTMIAEVLNAGGQRGLLAGNIGFPASEVVQAANDKDTLVMELSSFQLMGVKEFRPHIAVITNLMPTHLDYHGSFEDYVAAKWNIQNQMSSSDFLVLNFNQGISKELAKTTKATIVPFSTTEKVDGAYVQDKQLFYKGENIMSVDDIGVPGSHNVENALATIAVAKLAGISNQVIRETLSNFGGVKHRLQSLGKVHGISFYNDSKSTNILATQKALSGFDNTKVILIAGGLDRGNEFDELIPDITGLKHMVVLGESASRVKRAAQKAGVTYSDALDVRDAVHKAYEVAQQGDVILLSPANASWDMYKNFEVRGDEFIDTFESLRGE”, “not failed”; to “MKTLFLQYPACSTCQKAKKWLIENNIEYTNRLIVDDNPTVEELKAWIPLSGLPVKKFFNTSGVVYKELKLSSKLPTMTEEEQIALLATNGKLVKRPLVVTERFVLVGFKPEEWEKL”, “not failed”.
Regarding “MKTLHTDVAIIGAGTAGLAAYRAARAAGKRALLIEGGQYGTTCARVGCMPSKLLIAAAEAAHAAAHGGPFGVHIDGAVRIDGAQVMARVKSERDRFVGFVLEGVENIPAEDKLRGMARFVEDTVLRVDGHTEVRAGSVVIASGSRPAVPPPFLALGDRLVVNDDVFAWDTLPARVAVFGPGVIGLELGQALARLGVQVRVFGVSGSLGGITDPRVRQSARKAFQQEFYLDPDARVLETKRVGDEVEVRYVALDNTERTERFDYALVATGRRPNVDGLDLHNTSLALDARGVPHFDRHTMQAGQAPVFIAGDANADAPLLHEAADEGRIAGENAARYPDVAPGLRRAALGVVFSDPQIALVGTPFARLESGTFVAGEVDFGDQGRSRVMLRNRGMLRVYADIESGRFVGAEMVGPSAEHIGHLLAWAAQQSLTVAQMLEMPFYHPVVEEGLRTALRDAAARLAQARPQRLAA”, the protein production entry was “failed”.
Take “MKTTIAAALQQYFLNDNTACYVLTGDNYPHRIPMRNDEERLNVYNESGEDGLRGYLGTPKEIDFDRINKELSEFKAGKDIIEIKHMGREDGDISYDETDFTGIKVLILEWTHGGSEYLKGVDIPVFLESSPEETKARRIKRGRDENAASPFICRVVELEQEKLDLQGKNARIVVGKDGKVYEQLEHHHHHH”: the protein production entry is “failed”.
For the sequence “MKTTTIFTAALLACLSAPAHAQDLRGSEAGAVMKRESDVRDYYELQQRLKESRESRPEEAVTDRTEPAPQPPADGGQRVFISHIVTDPSEILTEDDLRQVVAPLEGKEVSIRELLAMVDRINDLYRQKGYLTARAVLPPQKVERGTVRIRLVEGRVGRISVGGNRHTRDWFVTSRLHLREGDLVRLDTLENDLFRFNAINDVKLRAEVKPGTATGTTDLILRTQEPDNYRVVAFADNGGGRYIGQERLGLTLQDLSLLGIRDPLTVGGTVADGTLSAHASYSLPLTPVGTRLGVTYDYTSIWITSGPFESLDVDGTSSDLGLTLSQPFALSPALSVTTFAGFNWKKSTTDFGGDTIFENRTRTLTLGGDLLAIDGYGTWFTRHVLTQGFHDFGGDRSFFKYNGDLVRTFILPDDFSALVRASGQVSGNHLLPSSEQFQLGGIATVRGFYEGLLIGDDGYFVSAELTLPLFPADASVYDVRLSPLLRGAIFFDHGGAFPYKGSGESIDHNDFLSSAGFGFILNLAKYLTGRIDFGFPVGERDPDPGTVRVHFSLSSEIL”, the protein production result was “failed”.
To “MKTYALVMAGGRGERLWPLSREDRPKPFLPLFEGKTLLEATLERLAPLVPPERTLLAVRRDQEAVARPYADGIRLLLEPLGRDTAGAVLLGVAEALKEGAERLLVLPADHYVGDDEAYREALATMLEAAEEGFVVALGLRPTRPETEYGYIRLGPREGAWYRGEGFVEKPSYAEALEYIRKGYVWNGGVFAFAPATMAELFRRHLPSHHEALERLLAGASLEEVYAGLPKISIDYGVMEKAERVRVVLGRFPWDDVGNWRALERVFSQDPHENVVLGEGRHVALDTFGCVVYADRGVVATLGVSGLVVAKVGDEVLVVPKDWAREVREVVKRLEAQE” belongs “not failed”; to “MKVAVIGSGISGLGSAYVLANQGVKEVVLYEKEESLGGHAKTVRFDGVDLDLGFMVFNRVTYPNMIEFFENLGVEMEVSDMSFAVSLDNGKGCEWGSRNGVSGLFAQKKNVLNPYFWQMIREIVRFKEDVLNYIEKLEGNPDIDRKETLGEFLNTRGYSELFQQAYLVPICGSIWSCPSDGVLSFSAYSVLSFCCNHHLLQIFGRPQWLTVAGRSQTYVAKVRAELERLGCKIRTSCDVKSVSTSENGCVTVTSGDGSEEVFDRCILAMHAPDALRLLGEEVTFDESRVLGAFQYVYSDIYLHHDIDLMPRNKAAWSAWNFLGSTEKKVCVTYWLNILQNLGENSEPFFVTLNPDETPKKALLKWTTGHPVPSVAASIASQELHQIQGKRNIWFCGAYQGYGFHEDGLKAGMAAARGLLGKETALLNNPRHMVPSLTETGARLFVTRFLGQFISTGSVTILEEGGTMFTFGGKDSTCPLKSILKIHSPQFYWKVMTQADLGLADAYINGDFSFVDKESGLLNLIMILIANRDTKSNLTKKRGWWTPMFLTAGLASAKYFLKHVSRQNTLTQARRNISRHYDLSNELFGLFLDDTMTYSSAVFKSDDEDLRTAQMRKISLLIDKARIEKDHEVLEIGCGWGTLAIEVVRRTGCKYTGITLSIEQLKYAEEKVKEAGLQDRITFELRDYRQLSDAHKYDRIISCEMLEAVGHEFMEMFFSRCEAALAEDGLMVLQFISTPEERYNEYRLSSDFIKEYIFPGACVPSLAKVTSAMSSSSRLCIEHVENIGIHYYQTLRLWRKNFLERQKQIMALGFDDKFVRTWEYYFDYCAAGFKTRTLGDYQLVFSRPGNVAAFADSYRGFPSAYCVS”, “failed”.
In the case of “MKVAVLDFGKTNSKLFVFGQDGGILDERRTQPKWTHQDGFSVLDEAALHDWALGAVTEAVENHGVEGVMVSGHGCTFALVDDAALTHPILDYEQEPPAEIAARIDHRIPDFAETFSPRLPLGFNYGRHMLWVQEVDPDAFAAAKSILGYPQYWSWRLGGRPVSEVSYLGCHSHLWAPRSQDFSSLVDAEGWRGQMPAFARAGAVIGERRLGSSSRPIAIHNGVHDSNAALHAYRRQELGPLTVVSTGTWVVVLNPGCPLDVLDRDRDMLVNVDVDGGPVPTIRFMGGREFAAISAGWQGAIPPGAVQQAIDAGIMALPSFAPGGPMPDRPGRLVGRTPYAAERAAAALLYVALMVDLCLDLIQSQDTVIVDGGLNAGGLLAGLLAELRPGQAFLQGATLEGSATGAAALAFESVGRDFVAEAPEPVHAARFAGLAGYRDAWRDRVGGQGTAIKAAGGARLEHHHHHH”, the protein production entry is “failed”.
Take “MKVDREKYGSEKIAKLKILEELKKENPNKKIIAIGNGNNDELLLKNADLGICVIGDEGAWSKTILSSDIVVKDINDALDLLLNENRLKATSRD”: the protein production result is reported as “failed”.
To “MKVEFLMTNHNHQHHHSHAHGHVHTDNKKVLMFSFIIISLFMLVEIIGGFLANSLALLSDGFHMLSDAISLGVALIAFIYAEKHATKSKTYGYKRFEILAALFNGVTLFIISIIIIIEAIRRFLEPPEVQSKEMFIISVIGLMVNIIVAILMFKGGDTSHNLNMRGAFLHVLGDLFGSVGAIVASLLIWGFNFTIADPIASILVSLIILKSAYGISKSSLNILMEGTPNDIDLNAVIKAISKDERIQNVHDCHVWTISNDMNALSCHAVVPEYLSVQTCETMLKSIESDLLQLNIQHMTIQLETPEHKHDESTLCSGIHEHSH” belongs “failed”; to “MKVERLSQPAQHLLTAGVENENSFALDTESVFTSAFLRAARGDARSSSRSDVVSLSEIVLEINQSIDELRVEKPAIKMSPQKYLLRNENNAGEFFFIKKARSEGYLQGRTGDPGAGGVDVSGPSDVRIPNRVTIGPDTVLFHPATGAPLLWFVRDGFDYDFFDGSGFHPRTGAKLAPFTKEEALIFEKRIREKEAEIRREAERVEKDRADREARDFAAKEALARKQEEDRKLREAEAARASEAGQRCDELAANPNDRNKVGQGASFSALKAQAADAVKACDLALKQKPSELRFKYQLARALQFSDRPRSFKLHKELVGQGYAASYDNLGWMYYTDRKDKPQAIVLFRQGIQVGDVDSMVSLAELVDRAEATPANASESKIELCRRAAELGHVGAAQCYQVEVAKQEQAEKDRAQQLEQQKMMIQLMGTIIQSATRR”, “failed”; to “MKVIGINGSPRRAGNTSIMLKTIFEVLEDEGIETELIQVGGTNIKGCRACYACIKNKNSECSTKGDGFNEIFAKMVEADGMILGSPTYFADITPELKALIDRAGFVSRTNGQLFRHKVGASVVSLRRGGGIHAYDSINHLFQICQMFMVGSTYWNLGFGGRDGGEVVNDTEGMENMRDLGHSMAFLLKKLHNLEHHHHHH”, “not failed”.
